From US11278600B2, “Human alpha-galactosidase variants” (Codexis, Inc., priority 2014, dated 2022)
Changes are numbered by the printed parent chain.

B1: 391 (protein)
chain: LDNGLARTPTMGWLHWERFMCNLDCQEEPDSCISEKLFMEMAERMVSEGWKDAGYEYLCIDDCWMAPQRDSEGRLQADPQRFPHGIRQLANYWHSKGLKLGIYADVGNKTCAGFPGSFGYYDIDAQTFADWGVDLLKFDGCYCDSLENLADGYKHMSLALNRTGRSIVYSCEWPLYMWPFQKPNYTEIRQYCNHWRNFADIDDSWKSIKSILDWTSRNQERIVDVAGPGGWNDPDMLVIGNFGLSWDQQVTQMALWAIMAAPLFMSNDLRHISPQAKALLQDKDVIAINQDPLGKQGYQLRKGDNFEVWERPLSGDAWAVAIINRQEIGGPRSYTIPVASLGKGVACNPACFITQLLPVKRQLGFYNWTSRLKSHINPTGTVLLQLENTMQMSLKDLL
modifications: Synthetic Polypeptide sequence of Variant No. 391 of mature Human GLA
B2: 392 (protein)
chain: B1 chain with W93T
modifications: Synthetic Polypeptide sequence of Variant No. 392 of mature Human GLA
B3: 393 (protein)
chain: B1 chain with W93G
modifications: Synthetic Polypeptide sequence of Variant No. 393 of mature Human GLA
B4: 224 (protein)
chain: LDNGLARTPTMGWLHWERFMCNLDCQEEPDSCISEKLFMEMAELMVSEGWKDAGYEYLCIDDCWMAPQRDSEGRLQADPQRFPHGIRQLANYVHSKGLKLGIYADVGNKTCAGFPGSFGYYDIDAQTFADWGVDLLKFDGCYCDSLENLADGYKHMSLALNRTGRSIVYSCEWPLYMWPFQKPNYTEIRQYCNHWRNFADIDDSWASIKSILDWTSFNQERIVDVAGPGGWNDPDMLVIGNFGLSWNQQVTQMALWAIMAAPLFMSNDLRHISPQAKALLQDKDVIAINQDPLGKQGYQLRKGDNFEVWERPLSGLAWAVAVINRQEIGGPRSYTIAVASLGKGVACNPACFITQLLPVKRKLGFYNWTSRLRSHINPTGTVLLQLENTMQMSKDLLL
modifications: Synthetic Polypeptide sequence of Variant No. 224 of mature Human GLA
B5: 228 (protein)
chain: B4 chain with K302Q, V322M, N367E, R373K
modifications: Synthetic Polypeptide sequence of Variant No. 228 of mature Human GLA
B6: 193 (protein)
chain: B4 chain with A206G, K302Q, V322M, N367E
modifications: Synthetic Polypeptide sequence of Variant No. 193 of mature Human GLA
B7: 230 (protein)
chain: B4 chain with K302Q, V322M, N367E, S374R
modifications: Synthetic Polypeptide sequence of Variant No. 230 of mature Human GLA
B8: 226 (protein)
chain: B4 chain with R221T, K302Q, V322M, F365L, N367E
modifications: Synthetic Polypeptide sequence of Variant No. 226 of mature Human GLA
B9: 227 (protein)
chain: B4 chain with K302Q, V322M, R325H, N367E
modifications: Synthetic Polypeptide sequence of Variant No. 227 of mature Human GLA
B10: 225 (protein)
chain: B4 chain with R165S, K302Q, V322M, N367E, T389S
modifications: Synthetic Polypeptide sequence of Variant No. 182 of mature Human GLA
B11: 192 (protein)
chain: B4 chain with A206E, K302Q, V322M, N367E
modifications: Synthetic Polypeptide sequence of Variant No. 192 of mature Human GLA
B12: 229 (protein)
chain: B4 chain with K302Q, V322M, N367E, R373K, I376V
modifications: Synthetic Polypeptide sequence of Variant No. 229 of mature Human GLA
B13: 232 (protein)
chain: B4 chain with K302Q, V322M, N367E, T369S
modifications: Synthetic Polypeptide sequence of Variant No. 232 of mature Human GLA
B14: 231 (protein)
chain: B4 chain with K302Q, V322M, N367E, T369D
modifications: Synthetic Polypeptide sequence of Variant No. 231 of mature Human GLA

Experiments:
Assay type in all cases: biochemical
[1] = HTP-analysis of yeast culture supernatants, no challenge (MUGal hydrolysis)
Summary of the method: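 GLA variants expressed in yeast INVSc1, secreted into SD-Ura broth over 66-84 h at 30° C; clarified supernatants tested without challenge. Supernatant mixed with McIlvaine buffer pH 4.8 and 2 mM MUGal (citrate/KCl, pH 4.6), 37° C for 30-180 min, carbonate-quenched, fluorescence Ex 355/Em 448 nm.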

[2] = HTP-analysis of supernatants pretreated with base (MUGal hydrolysis); settings: for Relative Activity of GLA Variants After Challenge at pH 9.65: activity of the variant/activity of Rd4BB (SEQ ID NO: 15); for Relative Activity of GLA Variants After Challenge at pH 7.6: activity of the variant/activity of Rd2BB (SEQ ID NO: 10), yeast supernatant
Summary of the method: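 GLA variants secreted from yeast INVSc1; culture supernatants pre-incubated with McIlvaine buffer pH 7.0–8.2 or 200 mM bicarbonate pH 9.1–9.7 at 37° C. for 1–18 h. Residual activity: MUGal (4 mM stock) hydrolysis at pH 4.3–4.8, 37° C., 30–180 min, carbonate quench; fluorescence Ex 355/Em 448 nm.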

[3] = HTP-analysis of supernatants pretreated with acid (MUGal hydrolysis); settings: for Relative Activity of GLA Variants After Challenge at pH 3.7: activity of the variant/activity of Rd4BB (SEQ ID NO: 15); for Relative Activity of GLA Variants After Challenge at pH 4.2: activity of the variant/activity of Rd2BB (SEQ ID NO: 10), yeast supernatant
Summary of the method: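 Fluorescence of MUGal hydrolysis (Ex. 355 nm, Em. 448 nm) is read after sodium carbonate quench. The enzyme source is INVSc1 yeast culture supernatant, first exposed to pH 3.3-4.3 McIlvaine buffer at 37° C. for 1-3 h, then reacted at pH 4.8 for 30-180 minutes.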

[4] = activity of the variant/activity of Rd4BB (SEQ ID NO: 15)
[5] = activity of the variant/activity of Rd2BB (SEQ ID NO: 10), yeast supernatant

| Molecule | Relative Activity of GLA Variants After No Challenge (NC) [1, 4] | Relative Activity of GLA Variants After Challenge at pH 9.65 [2] | Relative Activity of GLA Variants After Challenge at pH 3.7 [3] | Relative Activity of GLA Variants After No Challenge (NC) [1, 5] | Relative Activity of GLA Variants After Challenge at pH 7.6 [2] | Relative Activity of GLA Variants After Challenge at pH 4.2 [3] |
| --- | --- | --- | --- | --- | --- | --- |
| B1 | + (0.5 to 1.5 relative activity over Rd4BB (SEQ ID NO: 15)) | − (<0.5 relative activity over Rd4BB (SEQ ID NO: 15)) | + (0.5 to 1.5 relative activity over Rd4BB (SEQ ID NO: 15)) |  |  |  |
| B2 | + (0.5 to 1.5 relative activity over Rd4BB (SEQ ID NO: 15)) | − (<0.5 relative activity over Rd4BB (SEQ ID NO: 15)) | + (0.5 to 1.5 relative activity over Rd4BB (SEQ ID NO: 15)) |  |  |  |
| B3 | + (0.5 to 1.5 relative activity over Rd4BB (SEQ ID NO: 15)) | − (<0.5 relative activity over Rd4BB (SEQ ID NO: 15)) | − (<0.5 relative activity over Rd4BB (SEQ ID NO: 15)) |  |  |  |
| B4 |  |  |  | ++ (++ = 1.5 to 2.5 relative activity over Rd2BB (SEQ ID NO: 10)) | +++ (+++ = >2.5 relative activity over Rd2BB (SEQ ID NO: 10)) | +++ (+++ = >2.5 relative activity over Rd2BB (SEQ ID NO: 10)) |
| B5 |  |  |  | + (+ = 0.5 to 1.5 relative activity over Rd2BB (SEQ ID NO: 10)) | + (+ = 0.5 to 1.5 relative activity over Rd2BB (SEQ ID NO: 10)) | + (+ = 0.5 to 1.5 relative activity over Rd2BB (SEQ ID NO: 10)) |
| B6 |  |  |  | + (+ = 0.5 to 1.5 relative activity over Rd2BB (SEQ ID NO: 10)) | + (+ = 0.5 to 1.5 relative activity over Rd2BB (SEQ ID NO: 10)) | + (+ = 0.5 to 1.5 relative activity over Rd2BB (SEQ ID NO: 10)) |
| B7 |  |  |  | + (+ = 0.5 to 1.5 relative activity over Rd2BB (SEQ ID NO: 10)) | + (+ = 0.5 to 1.5 relative activity over Rd2BB (SEQ ID NO: 10)) | − (− = <0.5 relative activity over Rd2BB (SEQ ID NO: 10)) |
| B8 |  |  |  | + (+ = 0.5 to 1.5 relative activity over Rd2BB (SEQ ID NO: 10)) | ++ (++ = 1.5 to 2.5 relative activity over Rd2BB (SEQ ID NO: 10)) | + (+ = 0.5 to 1.5 relative activity over Rd2BB (SEQ ID NO: 10)) |
| B9 |  |  |  | − (− = <0.5 relative activity over Rd2BB (SEQ ID NO: 10)) | − (− = <0.5 relative activity over Rd2BB (SEQ ID NO: 10)) | − (− = <0.5 relative activity over Rd2BB (SEQ ID NO: 10)) |
| B10 |  |  |  | + (+ = 0.5 to 1.5 relative activity over Rd2BB (SEQ ID NO: 10)) | + (+ = 0.5 to 1.5 relative activity over Rd2BB (SEQ ID NO: 10)) | + (+ = 0.5 to 1.5 relative activity over Rd2BB (SEQ ID NO: 10)) |
| B11 |  |  |  | + (+ = 0.5 to 1.5 relative activity over Rd2BB (SEQ ID NO: 10)) | + (+ = 0.5 to 1.5 relative activity over Rd2BB (SEQ ID NO: 10)) | + (+ = 0.5 to 1.5 relative activity over Rd2BB (SEQ ID NO: 10)) |
| B12 |  |  |  | + (+ = 0.5 to 1.5 relative activity over Rd2BB (SEQ ID NO: 10)) | + (+ = 0.5 to 1.5 relative activity over Rd2BB (SEQ ID NO: 10)) | − (− = <0.5 relative activity over Rd2BB (SEQ ID NO: 10)) |
| B13 |  |  |  | ++ (++ = 1.5 to 2.5 relative activity over Rd2BB (SEQ ID NO: 10)) | ++ (++ = 1.5 to 2.5 relative activity over Rd2BB (SEQ ID NO: 10)) | ++ (++ = 1.5 to 2.5 relative activity over Rd2BB (SEQ ID NO: 10)) |
| B14 |  |  |  | ++ (++ = 1.5 to 2.5 relative activity over Rd2BB (SEQ ID NO: 10)) | ++ (++ = 1.5 to 2.5 relative activity over Rd2BB (SEQ ID NO: 10)) | ++ (++ = 1.5 to 2.5 relative activity over Rd2BB (SEQ ID NO: 10)) |
